{"source": "patent EP3351262A1", "about": "“CURAGLUTIDE FOR IN TREATMENT OF PREDIABETES, DIABETES, OBESITY AND METABOLIC DISEASES ASSOCIATED THERETO” (Istanbul Universitesi Rektorlugu, priority 2016, dated 2018)", "origin": "cited, not measured here", "conditions": "in vivo; cited from earlier work"}
{"substance": "GLP-1: glucagon like peptide-1, a neuroendocrine (intestinal) hormone with incretin effect", "values": [{"measurement": "half-life in plasma", "value": "12 to 30", "unit": "min"}]}
